We go through 6 molecules from patent US20050208585A1 (published 2005).

T1: human c-mpl (thrombopoietin receptor) on HU-03 cells and human platelets (human, UniProt P40238 26-635)
T1 construct: whole, on cells; also called mpl receptor; TPO receptor
T1 sequence (looked up): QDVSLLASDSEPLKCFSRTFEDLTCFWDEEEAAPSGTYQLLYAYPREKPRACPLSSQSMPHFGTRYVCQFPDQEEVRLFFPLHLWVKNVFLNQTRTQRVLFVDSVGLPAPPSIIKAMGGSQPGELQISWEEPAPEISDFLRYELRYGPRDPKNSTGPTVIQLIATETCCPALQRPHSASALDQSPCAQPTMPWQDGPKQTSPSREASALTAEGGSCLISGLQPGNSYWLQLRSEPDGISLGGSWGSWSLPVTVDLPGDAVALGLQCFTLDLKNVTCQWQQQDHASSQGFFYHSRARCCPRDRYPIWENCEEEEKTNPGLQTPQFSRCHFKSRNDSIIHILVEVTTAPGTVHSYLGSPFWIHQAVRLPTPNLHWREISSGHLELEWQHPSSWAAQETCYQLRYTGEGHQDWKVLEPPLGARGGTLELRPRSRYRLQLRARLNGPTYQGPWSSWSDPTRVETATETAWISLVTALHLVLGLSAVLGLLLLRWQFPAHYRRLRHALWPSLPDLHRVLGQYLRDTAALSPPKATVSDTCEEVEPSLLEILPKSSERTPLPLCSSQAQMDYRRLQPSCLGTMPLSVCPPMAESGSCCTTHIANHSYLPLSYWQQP

T2: mpl-Ig (UniProt P40238 26-491)
T2 construct: From conditioned media of mpl-Ig-transfected 293 cells, captured on rabbit anti-human IgG Fc; also called mpl-IgG; not shown: Ig part, captured by anti-human IgG Fc
T2 sequence (looked up): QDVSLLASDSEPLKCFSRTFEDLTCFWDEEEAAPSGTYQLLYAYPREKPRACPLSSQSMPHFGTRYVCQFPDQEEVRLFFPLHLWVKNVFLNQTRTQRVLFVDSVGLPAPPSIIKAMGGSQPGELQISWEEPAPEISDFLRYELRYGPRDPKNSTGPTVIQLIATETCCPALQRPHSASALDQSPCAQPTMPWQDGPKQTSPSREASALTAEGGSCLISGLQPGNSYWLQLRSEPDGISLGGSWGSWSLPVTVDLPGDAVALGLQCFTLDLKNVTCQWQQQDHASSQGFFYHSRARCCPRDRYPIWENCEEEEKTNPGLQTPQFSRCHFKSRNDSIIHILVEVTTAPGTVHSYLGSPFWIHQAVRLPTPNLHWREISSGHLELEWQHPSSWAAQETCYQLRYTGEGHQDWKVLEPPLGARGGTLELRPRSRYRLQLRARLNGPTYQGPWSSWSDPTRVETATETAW

B1: 12B5 scFv (scFv)
chain: MAQVQLVQSGGGLVRPGGSLSLSCAVSGITLRTYGMHWVRQAPGKGLEWVAGISFDGRSEYYADSVQGRFTISRDSSKNTLYLQMNSLRAEDTAVYYCARGAHYGFDIWGQGTMVTVSSGGGGTGGGGSGGGGSDIQMTQSPSTLSASIGDRVTITCRASEGIYHWLAWYQQKPGKAPKLLIYKASSLASGAPSRFSGSGSGTDFTLTISSLQPDDFATYYCQQYSNYPLTFGGGTELEIKRAA
B2: 12D5 IgG (antibody, V domains shown)
VH: QVQLVESGGGLVKPGGSLRLSCAASGFTFSSHNMNWVRQAPGKGLEWVSSISSSSSYIYYADSVKGRFTISRDNAKNSLYLQMNSLRAEDTAVYYCARDRGSTGMDVWGRGTLVTVSS
VL: DIVMTQSPSTLSASIGDRVTITCRASEGIYHWLAWYQQKPGKAPKLLIYKASSLASGAPSRFSGSGSGTDFTLTISSLQPDDFATYYCQQYSNYPLTFGGGTELEIKR
B3: 12B5 IgG (antibody, V domains shown)
VH: QVQLVQSGGGLVRPGGSLSLSCAVSGITLRTYGMHWVRQAPGKGLEWVAGISFDGRSEYYADSVQGRFTISRDSSKNTLYLQMNSLRAEDTAVYYCARGAHYGFDIWGQGTMVTVSS
VL: B2 VL
B4: 12E10 scFv (scFv)
chain: MAQVQLQQSGPGLVKPSETLSLTCTVSGDSISSYYWSWIRQPPGKGLEWIGYIYYSGSTNYNPSLKSRVTISVDTSKSQFSLKLSSVTAADTAVYYCARGRYFDVWGRGTMVTVSSGGGGSGGGGSGGGGSSYVLTQPPSVSGSPGQSITISCTGTSSDVGGYNYVSWYQQHPGKAPKLMIYEGSKRPSGVSNRFSGSKSGNTASLTISGLQAEDEADYYCSSYTTRSTRVFGGGTKLTVLGAA
B5: 12B5 Fab (Fab, from another filing)
scFv: B1 chain
B6: 12D5 Fab (Fab, V domains shown)
VH: B2 VH
VL: B2 VL

The target of the first experiment is T1, human c-mpl (thrombopoietin receptor) …. In words: competition with 100 pM 125I-TPO for binding to human platelets.
For orientation: IC50 means the midpoint of a concentration-inhibition curve. With B1, the IC50 stood at 100 nM.
B2 came in with a half-maximal inhibitory concentration (IC50) of 500 nM. Compared with the last molecule, the IC50 is about 5-fold higher.
Take B3: the IC50 amounted to 300 nM.
Molecule B4 had an IC50 of 5 nM.

The target is the same in a further experiment. The experiment can be described thus: cell-based or functional assay.
As to B1, the “Hu3 Proliferation (ED50)” value came out at 0.02 nM.
As to B3, the “Hu3 Proliferation (ED50)” value came to 0.03 nM.
Regarding B4, the “Hu3 Proliferation (ED50)” value stood at 0.005 nM.

Another experiment has as its target mpl-Rse.gD chimeric receptor (human, UniProt P40238 26-491). In words: cell-based or functional assay.
As to B5, the KIRA (ED50) was found to be 3 nM.
The same measure, in the same setting: next, B1: 1 nM; B6: 4 nM; B2: 3 nM.

The target of the next experiment is human c-mpl (thrombopoietin receptor) on HU-03 cells and human platelets (human) (UniProt P40238). The experiment can be described thus: competition with 100 pM 125I-TPO for binding to HU-03 cells.
For B5, the half-inhibitory concentration (IC50) is 900 nM. That is a sub-micromolar value.

The target in a further experiment is T1, human c-mpl (thrombopoietin receptor) …. Described as above.
B1 showed an IC50 of 10 nM.
Molecule B6 yielded a half-maximal inhibitory concentration (IC50) of 500 nM.
In turn, B2 had an IC50 of 10 nM. Against the preceding molecule, the IC50 is about 50-fold lower.
B3 yielded a concentration for half-maximal inhibition (IC50) of 10 nM.
On to B4, for which the IC50 was determined as 5 nM.

Another experiment concerns the target human c-mpl (thrombopoietin receptor) on HU-03 cells and human platelets (human) (UniProt P40238). The experiment can be described thus: cell-based or functional assay.
With B5, the Hu3 Proliferation (ED50) was > 1000 nM.

For another experiment, the target named is T2, mpl-Ig. In words: TPO receptor-binding inhibition ELISA: biotinylated TPO on captured mpl-Ig. (In general: An ELISA detects its analyte on a solid surface through an enzyme-linked reagent.)
In turn, B1 gave an IC50 of 17 nM.
Turning to B6, the half-maximal inhibitory concentration (IC50) was 1000 nM.
Molecule B2 yielded a half-inhibitory concentration (IC50) of 0.45 nM.
Molecule B3 came in with an IC50 of 0.152 nM.
The same measure, in the same setting: the value for B4 was 1.6 nM.
